Like-named read-outs stand apart in the source and are kept apart here. Each block holds one binder with its values, some of them ahead of it. Non-standard residues stand in square brackets, D forms with d. No end group written: not given here. *: point of attachment. FITC = O=C1OC2(c3ccc(O)cc3Oc3cc(O)ccc32)c2ccc(NC(=S)*)cc21; Ahx = NCCCCCC(=O)O
Columns and labels:
[1] = biological target: recombinant αIIbβ3 headpiece; assay: fluorescence polarisation; competition: unlabeled peptide against 3 nM FITC-dodecapeptide on 300 nM αIIbβ3 headpiece; I50 converted to KD; 20 mM HEPES, pH 7.5, 150 mM NaCl, 2 mM MnCl2, 0.1 mM CaCl2
[2] = biological target: recombinant αIIbβ3 headpiece; assay: as above; remark: listed apart in the source
[3] = biological target: six-domain αIIbβ3 headpiece fragment (chymotrypsin-treated, re-purified)
[4] = biological target: recombinant αIIbβ3 headpiece; assay: fluorescence polarisation; saturation: FITC-dodecapeptide probe at 3 nM, increasing concentration of αIIbβ3 headpiece; one-site specific binding fit; background with 10 μM tirofiban subtracted; 20 mM HEPES, pH 7.5, 150 mM NaCl, 2 mM MnCl2, 0.1 mM CaCl2
[5] = biological target: full-length human αIIbβ3 on CHO K1 cells (human) (UniProt P08514)

fold reduction in affinity against AGDV [1]: 5.6 fold
fold reduction in affinity against AGDV [2]: 7 fold
B2: AGDV-NH2 (amidated AGDV) (peptide)
peptide: AGDV-NH2

Kd [1]: 7.85 µM
B7: QAGDV pentapeptide (peptide)
peptide: QAGDV

EC50 of LIBS1 epitope exposure on CHO cells expressing αIIbβ3 (flow cytometry, 1 mM Mg2+ and 1 mM Ca2+) [5]: 580 µM
Kd [1]: 1.27 µM
B9: fibrinogen γC dodecapeptide (peptide)
peptide: HHLGGAKQAGDV

The remaining lines, values behind:

B1: AGD(v) (D-valine in place of L-valine) (peptide)
peptide: AGD[dV]
fold decrease in binding affinity against AGDV [1]: 24 fold

B3: RGDF peptide (peptide)
peptide: RGDF
Stokes radius of the αIIbβ3 headpiece by size-exclusion chromatography (Superdex 200) with 1 mM peptide (4.78 nm in buffer) [3]: 5.23 nm

B4: N-acetylated AGDV (peptide)
peptide: Ac-AGDV
Kd [1]: 1 µM

B5: FITC-aminohexanoyl-… (peptide)
peptide: {FITC-Ahx}-HHLGGAKQAGDV
Kd [4]: 0.64 µM

B6: AGDV-OCH3 (O-methylated AGDV) (peptide)
peptide: AGDV-OMe
fold reduction in affinity against AGDV [1]: 7.5 fold

B8: AGDV tetrapeptide (peptide)
peptide: AGDV
Kd [1]: 9.03 µM
